Sequences and labels used below:
B1: A2 antibody (antibody, V domains shown)
VH: QVQLQESGPGLVKPSETLSLTCTVSGGSISTYYWSWIRQSPGKGLEWMGYIYYSGSTNYNPSLESRVTIAVDTSKNQFSLQLTSVTAADTAVYYCARGAAEWLRFRGFFDSWGQGTLVTVSS
VL: ENVLTQSPGTLSLSPGERATLSCRASHSVTNNFLAWYQQKPGQAPRLLIYGVSSRATGIPDRFSGSGSGTDFTLTISRLEPEDFAVYYCQQYGVSGTFGQGTKLEIKR
B2: A4 antibody (antibody, V domains shown)
VH: QVHLVESGGGVVQPGRSLRLSCATFGLNFSDYGFHWVRQAPGKGLEWVAVTSYDGSNKYYAEFVKGRFTISRDNYKNTVYLQMNSLRLEDTAVYYCARDLAPYNFWSGYGNNWFDPWGQGTLVTVSS
VL: EIVLTQSPGTLSLSPGERATLSCRASQSVTGTSLAWFQQKPGQAPRLLIYGASSRATGIPDRFSGSGSGTDFTLTISRLEPEDFAVYYCQQYGSSPRLTFGGGTKVEIKR
B3: B6 antibody (antibody, V domains shown)
VH: EVQLVESGGGLVQPGGSLRLSCAASGFTFTTSTMNWVRQAPGKGLEWVSYITRTSTVIYYADSVKGRFTISRDNAKNSLYLQMSSLRAEDTAVYYCARGVRDIGGNGFDYWGQGTLVTVSS
VL: B2 VL with G31S, T32S, S33Y, F37Y, P41T, S77A, R97P, L98Y, G102Q, V106L
B4: B3 antibody (antibody, V domains shown)
VH: EVQLVESGGGLVQPGGSLRLSCSASGFTFRSYWMHWVRQVPGKGLVWVSCINKEGSSTTYADSVKGRFTISRDNAKNTLYLQMNSLRADDTAVYYCLRGYDVDYWGQGTLVTVSS
VL: QAVLTQPSSLSASPGASVSLTCTLRSGVNVGSYRIYWYQQKPGSPPRYLLRYKSGLDKHQGSGVPSRFSGSKDDSANAGILFISGLQSENDADYYCLIWHNSAVVFGGGTKLTVLG
B5: B1 antibody (antibody, V domains shown)
VH: B4 VH with S23A, Q82E
VL: B4 VL with V28I, S32T, N90D, D91E, N101S
B6: A3 antibody (antibody, V domains shown)
VH: MQLLESGGGLVKPGGSLRLSCAASGFTFSNAWMSWVRQGPGKGLEWVGRIKSKTDGGTTDYAAPVKGRFSISRNDSNNTLFLQMNSLKTEDTAVYYCTTGPQIVVVAGATSRDQPNYYYYGLDVWGLGTTVTVSS
VL: QSVLTQPPSASGTPGQRVTISCSGSSSNIGINTVNWYQQLPGTAPKLLIYKSNLRPSGVPDRFSGSKSGTSASLAISGLRSEDEADYYCAAWDDSLTGLYVFGTGTKVTVLG
B7: A1 antibody (antibody, V domains shown)
VH: QVHLQESGPGLVKPSETLSLTCTVSGDSISTYYWSWIRQPPGKGLEWIGYVYYTGSTNYSPSLEGRVTLSVDTSKNQFSLKLNSVSAADTAVYYCARGAAEWLRFRGFFDYWGQGILVSVSS
VL: B1 VL with N2V, H27Q, N32G, L47V, V52A, V86M, V94L
B8: A5 antibody (antibody, V domains shown)
VH: B2 VH
VL: EIVMTQSPATLSVSPGERATLSCRASQSISSNLAWYQQKPGQAPRLLIYDASTRATGIPARFSGSGSGTEFTLTISSLQSEDFAVYYCQQYNDWLVTFGQGTKVEIKR
B9: B5 antibody (antibody, V domains shown)
VH: QVHLQESGPGLVKPSGTLSLTCAVSGGSISYTNWWSWVRLPPGKGLEWIGEIYHSRSTNYNPSLKSRVTMSIDKSKNLFSLKLNSVTAADTAIYYCAKAAYTRDGIQPFDNWGQGTLVTVSS
VL: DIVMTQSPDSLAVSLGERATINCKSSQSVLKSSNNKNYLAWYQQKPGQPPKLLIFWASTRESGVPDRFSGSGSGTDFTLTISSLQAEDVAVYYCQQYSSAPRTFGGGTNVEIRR
B10: B4 antibody (antibody, V domains shown)
VH: EVQLVESGGGLVKPGGSLRVSCAASGFTFSSYSMNWIRQAPGKGLEWVSSISSNSSYIYYADSVKGRFTISRDNAKNSLYLQMNSLRAEDTAVYYCARDRDYSNYLTAWGQGTLVTVSS
VL: QSVLTQPPSVSGAPGQRVTISCTGSSSNIGAGYDVHWYRQLPGTAPKLLIYGKNNRPSGVPNRFSGSKSGTSASLAITGLQAEDEADYYCQSYDSSLSGSVFGGGTKLTVLG

Changes are numbered by the printed parent chain. A value given as a limit tells only on which side of the number the result lay.

The target of one assay is T1, C. difficile toxin A from strain VPI10463 (ATCC 43255), toxinotype 0 (Clostridium difficile, UniProt P16154 1-2710).
Test: not given
The molecule B1 had a Kd below 0.01 nM.

In turn, B2 showed a Kd below 0.01 nM.

The target of a further assay is T2, C. difficile toxin B from strain VPI10463 (ATCC 43255), toxinotype 0 (Clostridium difficile, UniProt P18177 2-2366).
Test: not given
In turn, B3 had a Kd below 0.01 nM.

A further assay concerns the target T3, WT Toxin B MLD (1-91) + LPETGG + 6X HIS (Clostridium difficile). As to the kind of experiment: BLI (Octet RED96). For orientation: In BLI a coated tip is dipped into the sample, and binding shifts an interference pattern.
With B4, the binding result is “no binding”.

The next assay has as its target Mutant Toxin B MLD (1-91) + LPETGG + 6X HIS (Clostridium difficile). The assay is described as follows: BLI (Octet RED96).
B5: the binding result is “no binding”.

For the molecule B4, the binding result was “no binding”.

A further assay deals with T1, C. difficile toxin A from strain …. The assay is described as follows: cell-based or functional assay.
As for B6, the “% completion cytotox (Vero cells)” value was 90% and the “Cytotox NT50, pM (Vero cells)” value came to 980 pM.

B7: the “% completion cytotox (Vero cells)” value was below 90% and the “Cytotox NT50, pM (Vero cells)” value was 48 pM.

Turning to B1, the “% completion cytotox (Vero cells)” value was found to be 100% and the “Cytotox NT50, pM (Vero cells)” value is 55 pM.

Turning to B2, the “% completion cytotox (Vero cells)” value was below 90% and the “Cytotox NT50, pM (Vero cells)” value turned out to be 3400 pM.

With B8, the “% completion cytotox (Vero cells)” value is 75% and the “Cytotox NT50, pM (Vero cells)” value was determined as 2700 pM.

The next assay concerns the target T2, C. difficile toxin B from strain …. The assay is described as follows: cell-based or functional assay.
For B9, the “% completion cytotox (Vero cells)” value was 95% and the “Cytotox NT50, pM (Vero cells)” value came out at 2900 pM.

For B5, the “% completion cytotox (Vero cells)” value is 95% and the “Cytotox NT50, pM (Vero cells)” value came out at 49 pM.

Consider B4, for which the “% completion cytotox (Vero cells)” value turned out to be 100% and the “Cytotox NT50, pM (Vero cells)” value came to 100 pM.

A further assay addresses T1, C. difficile toxin A from strain …. The assay is described as follows: cell-based or functional assay. This is another data set of the same source.
Turning to B6, the “% completion TEER (T-84 cells)” value worked out at 80% and the “TEER NT50, nM (T-84 cells)” value amounted to 1.3 nM.

Consider B7, for which the “% completion TEER (T-84 cells)” value was found to be 80% and the “TEER NT50, nM (T-84 cells)” value was below 1.3 nM.

For the molecule B1, the “% completion TEER (T-84 cells)” value is 75% and the “TEER NT50, nM (T-84 cells)” value was determined as 1.8 nM.

For the molecule B2, the “TEER NT50, nM (T-84 cells)” value came out at 4.7 nM.

B8: the “TEER NT50, nM (T-84 cells)” value came out at 7.3 nM.

The next assay has as its target T2, C. difficile toxin B from strain …. The assay is described as follows: cell-based or functional assay. This is another data set of the same source.
As for B9, the “% completion TEER (T-84 cells)” value amounted to 70% and the “TEER NT50 (T-84 cells)” value is 200.

Regarding B10, the “% completion TEER (T-84 cells)” value was found to be 93% and the “TEER NT50 (T-84 cells)” value was found to be 130.

With B3, the “% completion TEER (T-84 cells)” value amounted to 92% and the “TEER NT50 (T-84 cells)” value amounted to 100.

For B5, the “% completion TEER (T-84 cells)” value came out at 91% and the “TEER NT50 (T-84 cells)” value stood at 270.

For the molecule B4, the “% completion TEER (T-84 cells)” value was 95% and the “TEER NT50 (T-84 cells)” value amounted to 600.

A further assay addresses T3, WT Toxin B MLD (1-91) + LPETGG + 6X HIS. As to the kind of experiment: Western, dot blot, Octet (summary).
Regarding B5, the binding result is “no binding”.

The next assay deals with T1, C. difficile toxin A from strain …. As to the kind of experiment: BLI (Octet Red96), antibody on Protein A sensor, toxin in solution.
As to B6, the Kd was 0.461 nM, the koff is 7.77e-05 s⁻¹ and the kon was 169000 M⁻¹ s⁻¹.

B7 registered a Kd below 0.01 nM, a koff below 3.75e-06 s⁻¹ and a kon of 375000 M⁻¹ s⁻¹.

As to B1, the Kd was 0.00443 nM, the koff stood at 1.58e-06 s⁻¹ and the kon worked out at 356000 M⁻¹ s⁻¹.

Take B2: the Kd stood at 0.000557 nM, the koff is 3.09e-07 s⁻¹ and the kon was found to be 555000 M⁻¹ s⁻¹.

On to B8, for which the Kd was 0.144 nM, the koff was 4.49e-05 s⁻¹ and the kon was 312000 M⁻¹ s⁻¹.

The target of a further assay is T2, C. difficile toxin B from strain …. The description is as above.
B9 had a Kd of 0.202 nM, a koff of 9.62e-05 s⁻¹ and a kon of 477000 M⁻¹ s⁻¹.

Molecule B10 gave a Kd of 0.121 nM, a koff of 6.44e-05 s⁻¹ and a kon of 531000 M⁻¹ s⁻¹.

With B3, binding was characterised by a dissociation constant (Kd) of 0.000726 nM, the koff came out at 5.3e-07 s⁻¹ and the kon was found to be 730000 M⁻¹ s⁻¹.

On to B5, for which the Kd came out at 0.0477 nM, the koff came out at 2.79e-05 s⁻¹ and the kon worked out at 585000 M⁻¹ s⁻¹.

In the case of B4, the Kd is 0.487 nM, the koff worked out at 9.4e-05 s⁻¹ and the kon turned out to be 193000 M⁻¹ s⁻¹.

In general, Kd refers to the equilibrium constant for the complex coming apart. As a reminder, the koff is the first-order rate constant of dissociation. Higher therefore signals a short-lived complex. A word on the kon: it is the second-order rate constant of association. Read a low kon as slower complex formation.

Source of the values: patent US20190153078A1 (Sanofi, published 2019).
